{"source": "paper PMC7137382", "about": "“Structure of the Mycobacterium smegmatis α-maltose-1-phosphate synthase GlgM” (Acta Crystallographica. Section F, Structural Biology …, 2020)", "target": "the molecule itself", "experiment": "SEC; Superdex 200 10/300 GL, 50 mM bis-Tris pH 6.0, 5 mM MgCl2, 100 mM NaCl", "data": [{"protein": "α-maltose-1-phosphate synthase GlgM from Mycobacterium smegmatis (enzyme, Mycobacterium smegmatis mc2155, GlgM (glgM gene, MSMEG_5080) from M. smegmatis mc2155, synthesised with codon usage for E. coli; A TEV cleavage site lies between the N-terminal 6×His tag and the protein; also called M. smegmatis GlgM; source: E. coli BL21 Star, purified (HisTrap FF, imidazole gradient); not shown: 6×His, N-terminal, kept) MRVAMMTREYPPEVYGGAGVHVTELVAQLRKLCDVDVHCMGAPRDGAYVAHPDPTLRGANAALTMLSADLNMVNNAEAATVVHSHTWYTGLAGHLASLLYGVPHVLTAHSLEPLRPWKAEQLGGGYQVSSWVERTAVEAADAVIAVSSGMRDDVLRTYPALDPDRVHVVRNGIDTTVWYPAEPGPDESVLAELGVDLNRPIVAFVGRITRQKGVAHLVAAAHRFAPDVQLVLCAGAPDTPQIAEEVSSAVQQLAQARTGVFWVREMLPTHKIREILSAATVFVCPSVYEPLGIVNLEAMACATAVVASDVGGIPEVVADGRTGLLVHYDANDTEAYEARLAEAVNSLVADPDRAREYGVAGRERCIEEFSWAHIAEQTLEIYRKVSA", "values": [{"measurement": "stoichiometry N", "result": 2}]}]}
